According to the supplement of paper PMC12042874:
± gives the uncertainty stated by the source.

Assay: amyloid nucleation score (Sup35N fusion, yeast selection) (log enrichment); library NNK1; higher = more nucleation; inactive = no reads after selection
Summary of the method: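 In psi-negative yeast, Sup35N fusions carrying peptides of 20 random codons were induced with 100 μM copper sulfate for 24 hours. The cells then grew 7 days at 30°C on medium lacking adenine and uracil, and plasmid inserts from input and output were Illumina-sequenced, excluding sequences with under 100 input reads. Nucleation score is the DiMSum log enrichment of output over input reads, centred on the mode score of non-aggregating sequences.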

GVWDGKRSYGSLQSWAFVPE and KGRVKGSVASSLS are within error of each other in amyloid nucleation score: -0.138 ± 0.41 for the first, -0.309 ± 0.57 for the second.

WPNNRVQFCSCGSRFSCLGS and WIMKGY are within error of each other in amyloid nucleation score: 0.933 ± 0.85 for the first, -0.123 ± 1.1 for the second.

Compared with AMCCYGYVCCFYGSEVG, HMLWNNVRIF is lower in amyloid nucleation score: 5.51 ± 0.078 for the first, 0.09 ± 0.6 for the second.

TSTSC and SNMEYVMNEILVRLALPTSR are within error of each other in amyloid nucleation score: 0.223 ± 0.51 for the first, -0.671 ± 1.5 for the second.

Going from WYNGNKSHGRRVPGVQPRAL to FACTTSFSFMRWLRN, the amyloid nucleation score rises from -0.046 ± 0.46 to 0.903 ± 0.46.

First: NKQEQHFF
Second: YLTYAPQVWLSAGFNSNEGS
The amyloid nucleation score of the first is lower: 0.052 ± 0.4 for the first, 5.71 ± 0.078 for the second.

TFIKNVTNRVHYGNALTHLG and SQWALKITFYKMVAL are within error of each other in amyloid nucleation score: -0.204 ± 0.66 for the first, -0.171 ± 1.1 for the second.

PDFNPMSVVNGCSGSRWLNA and NTQFHCDDFQLVHDIQ are within error of each other in amyloid nucleation score: -0.676 ± 0.75 for the first, 0.214 ± 0.38 for the second.

ENTLRSYRLGHKVEWLMELG and MFTIF are within error of each other in amyloid nucleation score: -0.363 ± 0.39 for the first, 0.045 ± 0.3 for the second.

MYISYSLNKTPIVFAPCTVH and TNMRTWFSGSFTILKCTDFQ are within error of each other in amyloid nucleation score: -0.018 ± 0.48 for the first, 0.744 ± 0.74 for the second.

LSAFNWQGDVNLRECYNVY and TYLVILR are within error of each other in amyloid nucleation score: -0.337 ± 0.63 for the first, 0.33 ± 0.39 for the second.

VNLHWGSDEAVSIARDIYTW and CIDCYYRVCRFWSDSQAR are within error of each other in amyloid nucleation score: 0.533 ± 0.29 for the first, 0.552 ± 0.74 for the second.

MISGPNFEVYRLAVINGRSW and LAHVFWRIDWMDKWGYNGDA are within error of each other in amyloid nucleation score: 0.848 ± 0.58 for the first, 0.992 ± 0.26 for the second.

Compared with GCFIVR, NYVYPRVLYSFQVLLYPSKD is higher in amyloid nucleation score: -0.768 ± 0.98 for the first, 0.704 ± 0.49 for the second.

SFVSYYLLS and GTTFIRLIYFVYMARTTTEF are within error of each other in amyloid nucleation score: -1.09 ± 1.9 for the first, -1.35 ± 1.1 for the second.

KDICY and TFLWC are within error of each other in amyloid nucleation score: 0.864 ± 0.51 for the first, 0.462 ± 0.4 for the second.

Compared with TRIMVDFLLDWHCRMVKLVN, CWVETLTICACLTFTFFFWN is higher in amyloid nucleation score: 0.33 ± 0.44 for the first, 2.48 ± 0.14 for the second.

VRNDQRLLCRRFVKFSDFQS and FSKLWSVWLRLCLKG are within error of each other in amyloid nucleation score: -0.62 ± 0.95 for the first, 0.334 ± 0.52 for the second.

Compared with NYSVFVTSI, LLSIKSKSVFLASYCNILST is higher in amyloid nucleation score: 0.365 ± 0.5 for the first, 2.71 ± 0.17 for the second.

Compared with SSTSSRCHTSANLVRLVNGR, KNRRSCIMNIGRYWRVQMVI is lower in amyloid nucleation score: 0.714 ± 0.33 for the first, -0.846 ± 0.68 for the second.

TYRTLAARRWQLAYALWVLL and FVMHSSSM are within error of each other in amyloid nucleation score: -0.474 ± 0.6 for the first, -0.34 ± 0.53 for the second.

First: GYASAVVHHVGWNPTVGSLM
Second: HNWSCQVHRDINLDRGAKES
The amyloid nucleation score of the first is lower: -0.115 ± 0.42 for the first, 1.79 ± 0.4 for the second.

Compared with NLFLIDMNVWRLVVGGRQDW, GLELLAGVIHSWVRGSGALW is lower in amyloid nucleation score: 4.63 ± 0.073 for the first, -0.868 ± 0.84 for the second.

LPYTHFGDDLIGITQDGLRV and CESQMSRVDVLSCYMYGSVM are within error of each other in amyloid nucleation score: -0.035 ± 0.43 for the first, 0.303 ± 0.4 for the second.

ITRSWLT and SVFSTEVCSTHAMILWKY are within error of each other in amyloid nucleation score: -0.12 ± 0.3 for the first, 0.117 ± 1.4 for the second.

PIFMVSLST and RMGNQYPRSVKWT are within error of each other in amyloid nucleation score: -0.661 ± 0.66 for the first, -0.029 ± 0.33 for the second.

First: DCNPSWIPFLVCHRIYACWR
Second: TGKSRDNRNVDGNL
The amyloid nucleation score of the first is higher: 1.41 ± 0.64 for the first, 0.063 ± 0.38 for the second.

IMVHWMIYCGRMYLHCSSIV and GTCFCFITVSLLLVPVVLSD are within error of each other in amyloid nucleation score: 0.086 ± 0.97 for the first, -1.02 ± 2.7 for the second.

Compared with MDIFDTLAWTF, GEIITWLSGIPLDTVCILRM is lower in amyloid nucleation score: 0.632 ± 0.58 for the first, -0.229 ± 0.25 for the second.

First: KHCRVSPNVSECAFKGAMCL
Second: TQVSVFQ
The amyloid nucleation score of the first is higher: 1.17 ± 0.63 for the first, -1.3 ± 0.83 for the second.

Compared with WCRCTINFRHEDLNPFFNPK, FVLADYVGAARVRGTTLFAE is lower in amyloid nucleation score: 2.01 ± 0.16 for the first, 0.406 ± 0.53 for the second.

DMIKNAVNILLMMSVF and WEFRRWGLRLHLSFLASLGA are within error of each other in amyloid nucleation score: -0.399 ± 0.28 for the first, -0.015 ± 0.25 for the second.

Work on FVFGTFA yielded an amyloid nucleation score of 0.485 ± 0.59.

With VLAPF the amyloid nucleation score was “inactive”.
With WYVFLYFGCEKAMALSTNMT the amyloid nucleation score was “inactive”.
In the case of ENDVLELFRFSLCLCHRPGG, the amyloid nucleation score is reported as “inactive”.
For TFSHNIIRSCLTKESVSFP, the amyloid nucleation score was “inactive”.
In the case of GSSFVI, the amyloid nucleation score is reported as “inactive”.
With TSFFADYVHTIKLLAPLSVG the amyloid nucleation score was “inactive”.
With NFPLVSFFTNCSNKE the amyloid nucleation score was “inactive”.
